These results are taken from the supplement of paper PMC9112550, “Optimization of the antimicrobial peptide Bac7 by deep mutational scanning” (BMC Biology, 2022).

The data set concerns Escherichia coli TOP10. The data set is described as follows: shrunken log2 fold change of peptide-encoding DNA abundance (4.5 h post-induction vs induction); higher = less antimicrobial activity (less host growth inhibition). To be noted: time post-induction: 4.5 h; library: site-saturation at positions 5, 18, 19, 20.
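Note: peptides expressed intracellularly from a pBAD plasmid library in pooled LB shake-flask culture, induced with 0.3% L-arabinose, DNA abundance read by NGS, three biological replicates, DESeq2 with apeglm shrinkage.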

As to RRIRPRPPRLPRPRPRPPFMPRP, the “shrunken log2 fold change” value is 0.315.

For RRIRFRPPRLPRPRPRPGGKPRP, the “shrunken log2 fold change” value is 0.228. On to RRIRCRPPRLPRPRPRPWNAPRP, for which the “shrunken log2 fold change” value was -0.129. Consider RRIRMRPPRLPRPRPRPHDWPRP, for which the “shrunken log2 fold change” value was determined as 1.45. As to RRIRMRPPRLPRPRPRPMPNPRP, the “shrunken log2 fold change” value was 0.154. Turning to RRIRVRPPRLPRPRPRPTSMPRP, the “shrunken log2 fold change” value is -0.192. For the sequence RRIRVRPPRLPRPRPRPIAKPRP, the “shrunken log2 fold change” value was 0.391. Consider RRIRSRPPRLPRPRPRPKTGPRP, for which the “shrunken log2 fold change” value is -0.071.

Regarding RRIRNRPPRLPRPRPRPVHHPRP, the “shrunken log2 fold change” value is -2.09. As to RRIRGRPPRLPRPRPRPTSSPRP, the “shrunken log2 fold change” value came to 0.425. On to RRIRTRPPRLPRPRPRPRGCPRP, for which the “shrunken log2 fold change” value is 0.261.

Take RRIRKRPPRLPRPRPRPRDCPRP: the “shrunken log2 fold change” value was determined as 0.306. Then RRIRKRPPRLPRPRPRPDEKPRP, with 0.411; and RRIRPRPPRLPRPRPRPWNLPRP, with -0.365. RRIRLRPPRLPRPRPRPNADPRP: the “shrunken log2 fold change” value was 0.126. Turning to RRIRVRPPRLPRPRPRPDEFPRP, the “shrunken log2 fold change” value is -0.0422. To RRIRGRPPRLPRPRPRPNSLPRP belongs 0.271; to RRIRSRPPRLPRPRPRPSMLPRP, -0.3.

RRIRCRPPRLPRPRPRPCYMPRP: the “shrunken log2 fold change” value was -0.234.

As for RRIRERPPRLPRPRPRPPQNPRP, the “shrunken log2 fold change” value came to 0.232.

As for RRIRSRPPRLPRPRPRPCGYPRP, the “shrunken log2 fold change” value was -0.00214. To RRIRFRPPRLPRPRPRPSTEPRP belongs -0.112; to RRIRARPPRLPRPRPRPGHIPRP, 0.0195.

Regarding RRIRVRPPRLPRPRPRPVWDPRP, the “shrunken log2 fold change” value is 0.142. With RRIRCRPPRLPRPRPRPVNNPRP, the “shrunken log2 fold change” value is -0.327. As for RRIRARPPRLPRPRPRPLDWPRP, the “shrunken log2 fold change” value was 1. Regarding RRIRQRPPRLPRPRPRPMQDPRP, the “shrunken log2 fold change” value was -0.0104. For RRIRQRPPRLPRPRPRPFKSPRP, the “shrunken log2 fold change” value was -0.00197. For RRIRIRPPRLPRPRPRPIWHPRP, the “shrunken log2 fold change” value is -0.455.

Take RRIRQRPPRLPRPRPRPVVHPRP: the “shrunken log2 fold change” value was -0.164. To RRIRKRPPRLPRPRPRPGANPRP belongs 0.179; to RRIRGRPPRLPRPRPRPLFVPRP, 0.203. To RRIRLRPPRLPRPRPRPDWDPRP belongs -0.183; to RRIRCRPPRLPRPRPRPKHEPRP, -0.000422; to RRIRWRPPRLPRPRPRPISSPRP, -0.0629.

RRIRKRPPRLPRPRPRPSVWPRP: the “shrunken log2 fold change” value worked out at 0.645. To RRIRVRPPRLPRPRPRPTLCPRP belongs 0.0223; to RRIRQRPPRLPRPRPRPPSIPRP, -0.0422; to RRIRERPPRLPRPRPRPRVRPRP, 0.211. RRIRMRPPRLPRPRPRPMLIPRP: the “shrunken log2 fold change” value is -0.00481. With RRIRIRPPRLPRPRPRPIIYPRP, the “shrunken log2 fold change” value was -0.396.

Take RRIRNRPPRLPRPRPRPLMFPRP: the “shrunken log2 fold change” value is -0.947.

For the sequence RRIRVRPPRLPRPRPRPHNFPRP, the “shrunken log2 fold change” value is -0.418. RRIRYRPPRLPRPRPRPHMSPRP: the “shrunken log2 fold change” value was -0.452. On to RRIRSRPPRLPRPRPRPQFPPRP, for which the “shrunken log2 fold change” value was -0.00708. In the case of RRIRFRPPRLPRPRPRPLLVPRP, the “shrunken log2 fold change” value is 0.0528. For the sequence RRIRLRPPRLPRPRPRPNRVPRP, the “shrunken log2 fold change” value was -0.0939.

Take RRIRLRPPRLPRPRPRPCGLPRP: the “shrunken log2 fold change” value was 0.142.

On to RRIRCRPPRLPRPRPRPSTHPRP, for which the “shrunken log2 fold change” value is -0.454. For RRIRHRPPRLPRPRPRPQHAPRP, the “shrunken log2 fold change” value is 0.0729.

RRIRYRPPRLPRPRPRPEKFPRP: the “shrunken log2 fold change” value was -0.0136.

For RRIRARPPRLPRPRPRPRSTPRP, the “shrunken log2 fold change” value was 0.295.

For the sequence RRIRDRPPRLPRPRPRPETPPRP, the “shrunken log2 fold change” value turned out to be 0.904.

Turning to RRIRLRPPRLPRPRPRPTIQPRP, the “shrunken log2 fold change” value was -0.0934.

As for RRIRMRPPRLPRPRPRPGVRPRP, the “shrunken log2 fold change” value is 1.42.

Turning to RRIRARPPRLPRPRPRPKGSPRP, the “shrunken log2 fold change” value was found to be 0.199.

Consider RRIRKRPPRLPRPRPRPPCGPRP, for which the “shrunken log2 fold change” value was 0.614. For the sequence RRIRHRPPRLPRPRPRPIVPPRP, the “shrunken log2 fold change” value amounted to 0.0781. As for RRIRNRPPRLPRPRPRPGTDPRP, the “shrunken log2 fold change” value was -0.0425. To RRIRQRPPRLPRPRPRPYHNPRP belongs -0.945. On to RRIRRRPPRLPRPRPRPFLNPRP, for which the “shrunken log2 fold change” value was -0.0441. To RRIRCRPPRLPRPRPRPTSPPRP belongs 0.102. RRIRRRPPRLPRPRPRPYNFPRP: the “shrunken log2 fold change” value was -0.642. For RRIRPRPPRLPRPRPRPNNCPRP, the “shrunken log2 fold change” value was -0.0794. For the sequence RRIRIRPPRLPRPRPRPGSIPRP, the “shrunken log2 fold change” value was -0.471. Then RRIRPRPPRLPRPRPRPYREPRP, with -0.073; and RRIRMRPPRLPRPRPRPYMKPRP, with -0.0154; and RRIRHRPPRLPRPRPRPIMQPRP, with -0.228. For the sequence RRIRGRPPRLPRPRPRPEKWPRP, the “shrunken log2 fold change” value is -0.0809. To RRIRMRPPRLPRPRPRPMMPPRP belongs 0.0687.

Turning to RRIRERPPRLPRPRPRPSLAPRP, the “shrunken log2 fold change” value is -0.0635.

As for RRIRCRPPRLPRPRPRPVGYPRP, the “shrunken log2 fold change” value stood at 0.0595.

For RRIRKRPPRLPRPRPRPSFDPRP, the “shrunken log2 fold change” value is 0.301. With RRIRSRPPRLPRPRPRPCTRPRP, the “shrunken log2 fold change” value was -0.134. With RRIRIRPPRLPRPRPRPEQSPRP, the “shrunken log2 fold change” value worked out at 0.168. As for RRIRGRPPRLPRPRPRPKNCPRP, the “shrunken log2 fold change” value is -0.111. Regarding RRIRLRPPRLPRPRPRPEFMPRP, the “shrunken log2 fold change” value was -0.109. RRIRVRPPRLPRPRPRPNHNPRP: the “shrunken log2 fold change” value was -0.638. Take RRIRVRPPRLPRPRPRPRAHPRP: the “shrunken log2 fold change” value turned out to be 0.00164. To RRIRRRPPRLPRPRPRPCNGPRP belongs -0.199; to RRIRPRPPRLPRPRPRPMCFPRP, -0.405. Turning to RRIRHRPPRLPRPRPRPHCGPRP, the “shrunken log2 fold change” value is -0.0402. Consider RRIRGRPPRLPRPRPRPMMKPRP, for which the “shrunken log2 fold change” value turned out to be 0.591. To RRIRQRPPRLPRPRPRPFRIPRP belongs -0.0135. For the sequence RRIRYRPPRLPRPRPRPFFMPRP, the “shrunken log2 fold change” value is -0.71.

Regarding RRIRCRPPRLPRPRPRPQQFPRP, the “shrunken log2 fold change” value is -0.217. Then RRIRIRPPRLPRPRPRPPLCPRP, with 0.142.

In the case of RRIRVRPPRLPRPRPRPFPHPRP, the “shrunken log2 fold change” value is -0.366. Consider RRIRERPPRLPRPRPRPYFEPRP, for which the “shrunken log2 fold change” value was -0.696.

Consider RRIRDRPPRLPRPRPRPMRGPRP, for which the “shrunken log2 fold change” value came to 0.937. RRIRVRPPRLPRPRPRPPNVPRP: the “shrunken log2 fold change” value is -0.0619.

With RRIRIRPPRLPRPRPRPVREPRP, the “shrunken log2 fold change” value is 0.201.

For the sequence RRIRDRPPRLPRPRPRPKEFPRP, the “shrunken log2 fold change” value amounted to 0.0479. Turning to RRIRTRPPRLPRPRPRPYGMPRP, the “shrunken log2 fold change” value is -0.0576. Take RRIRKRPPRLPRPRPRPWALPRP: the “shrunken log2 fold change” value was -0.0102. Then RRIRHRPPRLPRPRPRPTEKPRP, with 0.0288; and RRIRPRPPRLPRPRPRPRRWPRP, with 0.56; and RRIRRRPPRLPRPRPRPKYPPRP, with -0.0539. Take RRIRSRPPRLPRPRPRPHLIPRP: the “shrunken log2 fold change” value is -0.303. For RRIRDRPPRLPRPRPRPLKDPRP, the “shrunken log2 fold change” value was -0.225. As for RRIRRRPPRLPRPRPRPMNKPRP, the “shrunken log2 fold change” value came out at 0.0717. To RRIRWRPPRLPRPRPRPEWLPRP belongs 0.803.

On to RRIRLRPPRLPRPRPRPWAEPRP, for which the “shrunken log2 fold change” value turned out to be 0.13. Then RRIRDRPPRLPRPRPRPPHEPRP, with 0.00485; and RRIRYRPPRLPRPRPRPKNMPRP, with -0.477. In the case of RRIRRRPPRLPRPRPRPGRHPRP, the “shrunken log2 fold change” value stood at 0.212. Turning to RRIRLRPPRLPRPRPRPKNPPRP, the “shrunken log2 fold change” value was -0.606. RRIRMRPPRLPRPRPRPICFPRP: the “shrunken log2 fold change” value was 0.149. Regarding RRIRKRPPRLPRPRPRPRQNPRP, the “shrunken log2 fold change” value is 0.586. As to RRIRIRPPRLPRPRPRPDWEPRP, the “shrunken log2 fold change” value is -0.0114. Regarding RRIRTRPPRLPRPRPRPWVRPRP, the “shrunken log2 fold change” value was found to be 0.0999. Take RRIRGRPPRLPRPRPRPKQWPRP: the “shrunken log2 fold change” value is 0.28.

In the case of RRIRMRPPRLPRPRPRPGGGPRP, the “shrunken log2 fold change” value turned out to be 1.67. For RRIRNRPPRLPRPRPRPDELPRP, the “shrunken log2 fold change” value was -0.134. For RRIRIRPPRLPRPRPRPPRNPRP, the “shrunken log2 fold change” value worked out at 0.217. In the case of RRIRNRPPRLPRPRPRPHNEPRP, the “shrunken log2 fold change” value was -0.509. Then RRIRYRPPRLPRPRPRPWNVPRP, with -0.0218; and RRIRYRPPRLPRPRPRPRNFPRP, with -0.358; and RRIRKRPPRLPRPRPRPMHFPRP, with 0.0573. For the sequence RRIRNRPPRLPRPRPRPYHCPRP, the “shrunken log2 fold change” value was -0.0116. To RRIRFRPPRLPRPRPRPARHPRP belongs 0.262. As for RRIRWRPPRLPRPRPRPQEPPRP, the “shrunken log2 fold change” value was determined as 0.316. RRIRFRPPRLPRPRPRPWVSPRP: the “shrunken log2 fold change” value is -0.272.

RRIRARPPRLPRPRPRPAHVPRP: the “shrunken log2 fold change” value stood at 0.0804. For the sequence RRIRVRPPRLPRPRPRPTFAPRP, the “shrunken log2 fold change” value was 0.294.
